Target: purified NTRI ectodomain (FLAG-NTRI, Fc removed) (human) (UniProt Q9P121)
Assay: AUC

Kd: 110 nM
percent dimer at 2.0 uM: 50%
percent dimer at 10 uM: 87%
stoichiometry N: 2
Substance: purified NTRI ectodomain (FLAG-NTRI, Fc removed) (from UniProt Q9P121 34-321) (domain or fragment)

Reference: article PMC6609445
